B1: recombinant Desmodus rotundus salivary plasminogen activator alpha1 (DSPAα1) from transgenic T3 tobacco seeds, with C-terminal 6xHis tag and KDEL (protein)
chain: AYGVACKDEITQMTYRRQESWLRPEVRSKRVEHCQCDRGQARCHTVPVNSCSEPRCFNGGTCWQAVYFSDFVCQCPAGYTGKRCEVDTRATCYEGQGVTYRGTWSTAESRVECINWNSSLLTRRTYNGRMPDAFNLGLGNHNYCRNPNGAPKPWCYVIKAGKFTSESCSVPVCSKATCGLRKYKEPQLHSTGGLFTDITSHPWQAAIFAQNRRSSGERFLCGGILISSCWVLTAAHCFQESYLPDQLKVVLGRTYRVKPGEEEQTFKVKKYIVHKEFDDDTYNNDIALLQLKSDSPQCAQESDSVRAICLPEANLQLPDWTECELSGYGKHKSSSPFYSEQLKEGHVRLYPSSRCAPKFLFNKTVTNNMLCAGDTRSGEIYPNVHDACQGDSGGPLVCMNDNHMTLLGIISWGVGCGEKDVPGVYTKVTNYLGWIRDNMHLHHHHHHKDEL
B2: recombinant human tissue plasminogen activator (t-PA) from transgenic T1 tobacco seeds, with C-terminal 6xHis tag and KDEL (protein)
chain: SYQVICRDEKTQMIYQQHQSWLRPVLRSNRVEYCWCNSGRAQCHSVPVKSCSEPRCFNGGTCQQALYFSYFVCQCPEGFAGKCCEIDTRATCYEDQGISYRGTWSTAESGAECTNWNSSALAQKPYSGRRPDAIRLGLGNHNYCRNPDRDSKPWCYVFKAGKYSSEFCSTPACSEGNSDCYFGNGSAYRGTHSLTESGASCLPWNSMILIGKVYTAQNPSAQALGLGKHNYCRNPDGDAKPWCHVLKNRRLTWEYCDVPSCSTCGLRQYSQPQFRIKGGLFADIASHPWQAAIFAKHRRSPGERFLCGGILISSCWILSAAHCFQERFPPHHLTVILGRTYRVVPGEEEQKFEVEKYIVHKEFDDDTYDNDIALLQLKSDSSRCAQESSVVRTVCLPPADLQLPDWTECELSGYGKHEALSPFYSERLKEAHVRLYPSSRCTSQHLLNRTVTDNMLCAGDTRSGGPQANLHDACQGDSGGPLVCLNDGRMTLVGIISWGLGCGQKDVPGVYTKVTNYLDWIRDNMRPHHHHHHKDEL

Molecular target: fibrin (formed in the agarose plate from fibrinogen and thrombin)

Protein	fibrin plate assay (fibrin degradation; lytic area on the fibrin plate)
B1	recombinant t-PA from T1 seeds and DSPAα1 from T3 homologous seeds can degrade fibrin
B2	recombinant t-PA from T1 seeds and DSPAα1 from T3 homologous seeds can degrade fibrin

Reference: patent publication US20160208274
